The chains are these.
B1: DARPin #1 (designed binder)
chain: DLGKKLLDAARAGQDDEVRILMANGADVNAMDVWGVTPLHLAAWHRHLEIVEVLLKTGADVNANDDSGFTPLHLAAHWGHLEIVEVLLKHGADVNAQDKFGKTPFDLAIDNGNEDIAEVLQ
notes: also called designed ankyrin repeat domain #1; not shown: N terminal His6 tag; C terminal FLAG tag
B2: DARPin #10 (designed binder)
chain: DLGKKLLEAARAGQDDEVRILMANGADVNAADDQGRTPLHLAAMHGHLEIVEVLLKTGADVNANDWFGITPLHLAAWWGHLEIVEVLLKAGADVNAVDHSGDTPLHLAAHLGHLEIVEVLLKHGADVNAQDKFGKTPFDLAIDNGNEDIAEVLQ
notes: also called designed ankyrin repeat domain #10; not shown: N terminal His6 tag; C terminal FLAG tag
B3: DARPin #13 (designed binder)
chain: DLGKKLLEAARAGQDDEVRILMANGADVNATDQHGRTPLHLAAHTGHLEIVEVLLKTGADVNAQDHQGITPLHLAAFKGHLEIVEVLLKTGADVNAQDNWGYTPLHLAAARGHLEIVEVLLKAGADVNAQDKFGKTPFDLAIDNGNEDIAEVLQ
notes: also called designed ankyrin repeat domain #13; not shown: N terminal His6 tag; C terminal FLAG tag
B4: DARPin #21 (designed binder)
chain: DLGKKLLEAAELGQLDEVRILMANGADVNAMDQHGITPLHLAAWHGHLEIVEVLLKTGADVNAKDQDGSTPLHLAAYLGHLEIVEVLLKTGADVNAFDKFGNTPLHLAAHRGHLEIVEVLLKHGADVNAQDKFGKTPFDLAIDNGNEDIAEVLQ
notes: also called designed ankyrin repeat domain #21; not shown: N terminal His6 tag; C terminal FLAG tag
B5: DARPin #23 (designed binder)
chain: DLGKKLLEAARYGQDDEVRILMANGADVNAEDQHGHTPLHLAAFSGHLEIVEVLLKTGADVNANDINGVTPLHLAANVGHLEIVEVLLKHGADVNAQDKFGKTPFDLAAYLGNEDIAEVLQ
notes: also called designed ankyrin repeat domain #23; not shown: N terminal His6 tag; C terminal FLAG tag
B6: DARPin #20 (designed binder)
chain: DLGKKLLEAARAGQDDEVRILMANGADVNAVDYQGRTPLHLAAQYGHLEIVEVLLKTGADVNAQDHHGITPLHLAAFWGHLEIVEVLLKAGADVNAKDDQGNTPLHLAAWRGHLEIVEVLLKHGADVNAQDKFGKTPFDLAIDNGNEDIAEVLQ
notes: also called designed ankyrin repeat domain #20; not shown: N terminal His6 tag; C terminal FLAG tag
B7: DARPin #25 (designed binder)
chain: DLGKKLLEAARAGQDDEVRILMANGADVNATDWQGSTPLHLAAQHGHLEIVEVLLKTGADVNAEDQNGITPLHLAAYWGHLEIVEVLLKAGADVNAVDRQGNTPLHLAAVWGHLEIVEVLLKHGADVNAQDKFGKTPFDLAIDNGNEDIAEVLQ
notes: also called designed ankyrin repeat domain #25; not shown: N terminal His6 tag; C terminal FLAG tag
B8: DARPin #11 (designed binder)
chain: DLVKKLLEAARAGQDDEVRILMANGADVNANDHFGITPLHLTAWWGHLEIVEVLLKAGADVNAVDHWGTTPLHLAAHQGHLEIVEVLLKHGADVNAQDKFGKTAFDISIDNGNEDIAEVLQ
notes: also called designed ankyrin repeat domain #11; not shown: N terminal His6 tag; C terminal FLAG tag
B9: DARPin #15 (designed binder)
chain: DLGKKLLEAARAGQDDEVRILMANGADVNAMDMWGITPLHLAAWAGHLEIVEVLLKTGADVNAFDQHGNTPLHLAAYRGHLEIVEVLLKTGADVNAHDNWGTTPLHLTAHNGHLEIVEVLLKAGADVNAQDKFGKTPFDLAIDNGNEDIAEVLQ
notes: also called designed ankyrin repeat domain #15; not shown: N terminal His6 tag; C terminal FLAG tag
B10: DARPin #4 (designed binder)
chain: DLGKKLLDAASVGQDDEVRILMANGADVNASDTYGRTPLHVAAQHGHLEIVDVLLAHGADVNASNAYGSTPLHVAAWTGHLEIVDVLLAYGADVNASNSQGNTPLHAAAATGHLEIVEVLLKHGADVNAQDKFGKTPFDLAIDNGNEDIAEVLQ
notes: also called designed ankyrin repeat domain #4; not shown: N terminal His6 tag; C terminal FLAG tag
B11: DARPin #5 (designed binder)
chain: DLGKKLLEAARAGQDDEVRILMANGADVNAEDHVGRTPLHLAAAHGHLEIVEVLLKTGADVNARDRHGITPLHLAAWSGHLEIVEVLLKTGADVNASDKQGNTPLHLAAYRGHLEIVEVLLEAGADVNAQDKFGKTPFDLAIDNGNEDIAEVLQ
notes: also called designed ankyrin repeat domain #5; not shown: N terminal His6 tag; C terminal FLAG tag
B12: DARPin #22 (designed binder)
chain: DLGKKLLEAARAGQDDEVRILMANGADVNASDWWGITPLHLAAYWGHLEIVEVLLKTGADVNAQDNQGITPLHLAATLGHLEIVEVLLKHGADVNAQDKFGKTPFDLAIDNGNEDIAEVLQ
notes: also called designed ankyrin repeat domain #22; not shown: N terminal His6 tag; C terminal FLAG tag
B13: DARPin #24 (designed binder)
chain: DLGKKLLEAARAGQDDEVRILMANGADVNAIDVHGITPLHLAAYWGHLEIVEVLLKAGADVNAEDESGHTPLHLAAHWGHLEIVEVLLKHGADVNAQDKFGKTPFDLAIDNGNEDIAEVLQ
notes: also called designed ankyrin repeat domain #24; not shown: N terminal His6 tag; C terminal FLAG tag
B14: DARPin #26 (designed binder)
chain: DLGKKLLEAARAGQDDEVRILMANGADVNAIDWWGITPLHLAALFGHLEIVEVLLKTGADVNAEDRLGFTPLHLAATTGHLEIVEVLLKAGADVNAQDKFGKTPFDLAIDNGNEDIAEVLQ
notes: also called designed ankyrin repeat domain #26; not shown: N terminal His6 tag; C terminal FLAG tag
B15: DARPin #8 (designed binder)
chain: DLGKKLLEAARAGQDDEVRILMANGADVNAADEYGITPLHLAAFFGHLEIVEVLLKTGADVNADDAWGSTPLHLAAYKGHLEIVEVLLKHGADVNAQDKFGKTPFDLAIDNGNEDIAEVLQ
notes: also called designed ankyrin repeat domain #8; not shown: N terminal His6 tag; C terminal FLAG tag
B16: DARPin #12 (designed binder)
chain: DLGKKLLEAARAGQDDEVRILMANGADVNAQDQRGRTPLHLAAAWGHLEIVEVLLKTGADVNAADDMGHTPLHLAAAFGHLEIVEVLLKHGADVNAQDKFGKTPFDLAIDNGNEDIAEVLQ
notes: also called designed ankyrin repeat domain #12; not shown: N terminal His6 tag; C terminal FLAG tag
B17: DARPin #16 (designed binder)
chain: DLGKKLLEAARAGQDDEVRILMANGADVNAKDRYGITPLHLAAYWGHLEIVEVLLKAGSDVNALDYHGSTPLHLAAWFGHLEIVEVLLKHGADVNAQDKFGKTPFDLAIDNGNEDIAEVLQ
notes: also called designed ankyrin repeat domain #16; not shown: N terminal His6 tag; C terminal FLAG tag
B18: DARPin #3 (designed binder)
chain: DLGKKLLEAARAGQDDEVRILMANGADVNAQDMTGKTPLHLAAREGHLEIVEVLLKTGADVNAKDLWGVTPLHLAAFSGHLEIVEVLLKTGADVNAWDWEGKTPLHLAAVKGHPEIVEVLLKHGADVNAQDKFGKTPFDLAIDNGNEDIAEVLQ
notes: also called designed ankyrin repeat domain #3; not shown: N terminal His6 tag; C terminal FLAG tag
B19: DARPin #17 (designed binder)
chain: DLGKKLLEAARAGQDDEVRILMANGADVNAADNYGITPLHLAAYRGHLEIVEVLLKTGADVNAHDNVGNTPLHLAAAKGHLEIVEVLLKAGADVNADDVQGVTPLHLAASQGHLEIVEVLLKHGADVNAQDKFGKTPFDLAIDNGNEDIAEVLQ
notes: also called designed ankyrin repeat domain #17; not shown: N terminal His6 tag; C terminal FLAG tag

The source of these data is patent US20260103541A1 (UNIVERSIT T Z RICH, published 2026).

The assay concerns the target T1, human FAP (fibroblast activation protein) on HT1080hFAP cells (human, UniProt Q12884 1-760).
T1 construct: also called seprase
T1 sequence: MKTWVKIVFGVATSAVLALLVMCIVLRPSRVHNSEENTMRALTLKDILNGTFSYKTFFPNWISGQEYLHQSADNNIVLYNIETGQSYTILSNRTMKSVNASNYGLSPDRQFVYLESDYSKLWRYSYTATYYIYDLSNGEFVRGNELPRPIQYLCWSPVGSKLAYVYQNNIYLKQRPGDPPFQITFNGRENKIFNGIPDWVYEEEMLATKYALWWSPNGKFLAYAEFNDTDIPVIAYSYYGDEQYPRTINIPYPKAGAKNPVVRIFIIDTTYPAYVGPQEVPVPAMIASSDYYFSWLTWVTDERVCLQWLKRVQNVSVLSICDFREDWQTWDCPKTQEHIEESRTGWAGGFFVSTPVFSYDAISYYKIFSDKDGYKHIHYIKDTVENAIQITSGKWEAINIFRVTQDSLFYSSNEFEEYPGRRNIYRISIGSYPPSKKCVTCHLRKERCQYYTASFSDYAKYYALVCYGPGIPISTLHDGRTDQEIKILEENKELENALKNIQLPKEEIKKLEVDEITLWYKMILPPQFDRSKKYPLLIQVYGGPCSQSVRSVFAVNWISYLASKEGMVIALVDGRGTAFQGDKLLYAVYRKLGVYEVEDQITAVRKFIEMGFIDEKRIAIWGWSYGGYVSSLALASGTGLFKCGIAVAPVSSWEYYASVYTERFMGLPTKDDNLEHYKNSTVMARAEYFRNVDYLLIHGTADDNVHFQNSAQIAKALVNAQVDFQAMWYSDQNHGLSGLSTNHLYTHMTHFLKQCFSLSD
As to the kind of experiment: flow cytometry cell-based binding assay, HT1080hFAP against FAP-negative HT1080 cells.
Regarding B1, the binding result is given as “binds”. Turning to B2, the binding result is reported as “binds”. For the molecule B3, the binding result was “binds”. As to B4, the binding result was “binds”. With B5, the binding result is on record as “binds”.

In the case of B6, the binding result was “binds”. Take B7: the binding result is reported as “binds”. Take B8: the binding result is reported as “binds”. In the case of B9, the binding result is on record as “binds”. As to B10, the binding result is listed as “binds”. Regarding B11, the binding result is recorded as “binds”.

Take B12: the binding result is “binds”. With B13, the binding result is listed as “binds”.

As to B14, the binding result is “binds”. In the case of B15, the binding result is on record as “binds”. As to B16, the binding result is reported as “binds”.

As to B17, the binding result is “binds”. The value for B18 was “binds”; that for B19 was “binds”.
